According to the supplement of paper PMC12764529:
± gives the half width of the 95% confidence interval.

Assay: folding stability dG unfold from chymotrypsin proteolysis; higher = more stable
Method in brief: (§1)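 Mini-proteins designed to be under 80 residues and free of cysteine were carried in a PA-tagged cDNA display construct and digested with trypsin and with chymotrypsin. Each protease was applied at 11 threefold-diluted concentrations, alongside a no-protease condition, before sequencing. K50 came from Bayesian fitting of the sequencing counts, and unfolding free energy was obtained by comparing it with a sequence-predicted unfolded-state K50 and a shared folded-state K50, for each protease separately or for both together. Designs were retained only if their AlphaFold2 dimer inter-PAE exceeded 15.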

Row | Sequence | folding stability dG unfold
1 | SAGGMMTVRIVIEKDGKKITITAKVTKIEFDEETGKLTITFEDGSKKEIDLDKLKIKKIEVEPAPEEESAGG [r13_636_TrROS_Hall] | 3.06 ± 0.19 kcal/mol
2 | SAGGSAGGIHPDVKVKLVKIVSVEEGEGEVVAKALVELPNGERVVVSSEVLKELLEENPDVDVSSAGGSAGG [r6_77_TrMRF] | 1.02 ± 0.067 kcal/mol
3 | SAGGSEKIEVEVERREDGYLVLRVRLELFDENGELVEEIEIEVVLPREELEKMSLEELLKRLLEELSAGGSA [r2_421_TrROS_Hall] | 5.25 ± 0.38 kcal/mol
4 | SAGGNRIMFIVNSPEEAERFANFIRKHLPPGMNLEIEIEPFPLKDNVPPDDPDYKNQPVYMVHITIPSAGGS [r16_795_TrROS] | 4.13 ± 0.12 kcal/mol
5 | SADPLSSILSQALSVEFDPETGKVTITTKDKSIVEKALEEGAENATLTESEDDIYTATIDLPPLPEGVLSAG [r14_115_TrMRF] | -0.155 ± 0.085 kcal/mol
6 | SAGGKMVKIKIVVEVKVEEEVKEGEKVETFKVELTIELPEEEVEKLKAELEKLFPDVKIVEIEKVEPSAGGS [r8_490_TrROS_Hall] | 3.86 ± 0.47 kcal/mol
7 | SAGGSAGGMIYADNPEEFKKVVKELLKKHPKNKPVFAVLTGSNSKYVIYLSGDKLEKVLAFPVPSAGGSAGG [r6_288_TrMRF] | 1.62 ± 0.051 kcal/mol
8 | SAGGPLTLTIPLPDGTTITVTLTRNPDTPSYTATADITFPDGSVVRIHATINSDGSITIHSVEVFPASAGGS [r16_213_TrMRF] | 5.06 ± 0.24 kcal/mol
9 | SAGGSAGGSAGGMEISEKLREYIEKLGKKVSEEEALAIAEEKAKELKEKGIEDVTIVLPVSAGGSAGGSAGG [r7_512_JUSTAS] | 0.374 ± 0.072 kcal/mol
10 | DTVTIVVEGMSEEEVLEKARAAAEELAKEGKTVEIVVKLSPEALKKAGVEKVEEVEDEETGLLVIKVEVKPS [r1_467_TrROS_Hall] | 0.599 ± 0.07 kcal/mol
11 | SAGGSASAEEAARAFVAAHPDRALVEVEIERSFIPEKGVEVVTLTVTLAFPDGSRRVVPVTVTRPRSAGGSA [r15_266_JUSTAS] | 1.06 ± 0.044 kcal/mol
12 | SAGGSAGGMVIPFILPGSEFEEEEAIERLLELIETARELNPDTPIIANPLILEVPPPPTETELGSAGGSAGG [r6_728_TrMRF] | 0.538 ± 0.13 kcal/mol
13 | SKTVVIKIDNRVPVPKSDKYVPIKEEFFLKVINEIKKKGYKVIITGANPDNPLAKEVAKKAKELGFEVVGSA [r9_468_TrMRF] | 0.805 ± 0.082 kcal/mol
14 | SAGGSAGGSAGGKPVKLEISFDKETNTITIKAVDEENKTVTETTIKVTFLPPPPPPPPKSAGGSAGGSAGGS [r10_331_TrROS_Hall] | 2.14 ± 0.37 kcal/mol
15 | SAKKKYIAKVLIEKGDKIIEIEIPGDATVKNPDGKEYTFKVESPEKLKEAIKKLFPEKYPAKILEVKEESAG [r14_41_TrMRF] | 1.73 ± 0.087 kcal/mol
16 | SAGPEREVEVETLVIEAEDGKERLVLRLVRVDGRLYLEVRRYRDGKWEEVARFEAPEEITLSPELLKALSAG [r5_490_TrROS_Hall] | 4.219 ± 0.039 kcal/mol
17 | SAERTPVREADIPIPGLPVVVRVRTYAEAVELARKSGVPVVVETVEVEVFLPDGSRVRFPAPGLLVLDGSAG [r14_100_TrMRF] | 1.55 ± 0.055 kcal/mol

Assay: folding stability dG unfold from trypsin proteolysis; higher = more stable
Method in brief: as §1

Row | Sequence | folding stability dG unfold
18 | SAGGMMTVRIVIEKDGKKITITAKVTKIEFDEETGKLTITFEDGSKKEIDLDKLKIKKIEVEPAPEEESAGG [r13_636_TrROS_Hall] | 1.66 ± 0.078 kcal/mol
19 | SAGGSAGGIHPDVKVKLVKIVSVEEGEGEVVAKALVELPNGERVVVSSEVLKELLEENPDVDVSSAGGSAGG [r6_77_TrMRF] | 0.301 ± 0.056 kcal/mol
20 | SAGGSEKIEVEVERREDGYLVLRVRLELFDENGELVEEIEIEVVLPREELEKMSLEELLKRLLEELSAGGSA [r2_421_TrROS_Hall] | 3.99 ± 0.17 kcal/mol
21 | SAGGNRIMFIVNSPEEAERFANFIRKHLPPGMNLEIEIEPFPLKDNVPPDDPDYKNQPVYMVHITIPSAGGS [r16_795_TrROS] | 3 ± 0.096 kcal/mol
22 | SADPLSSILSQALSVEFDPETGKVTITTKDKSIVEKALEEGAENATLTESEDDIYTATIDLPPLPEGVLSAG [r14_115_TrMRF] | 0.576 ± 0.12 kcal/mol
23 | SAGGKMVKIKIVVEVKVEEEVKEGEKVETFKVELTIELPEEEVEKLKAELEKLFPDVKIVEIEKVEPSAGGS [r8_490_TrROS_Hall] | 3.39 ± 0.24 kcal/mol
24 | SAGGSAGGMIYADNPEEFKKVVKELLKKHPKNKPVFAVLTGSNSKYVIYLSGDKLEKVLAFPVPSAGGSAGG [r6_288_TrMRF] | 0.961 ± 0.028 kcal/mol
25 | SAGGPLTLTIPLPDGTTITVTLTRNPDTPSYTATADITFPDGSVVRIHATINSDGSITIHSVEVFPASAGGS [r16_213_TrMRF] | 4.51 ± 0.57 kcal/mol
